Reference: US11753455B2, “Compounds for treatment of obesity” (Novo Nordisk A/S, priority 2018, dated 2023)

Tested on: brain regions of mice (C57BL/6J)
Experiment: In vivo imaging of fluorescently labelled GLP-1 Fab fusion proteins in brain (LSFM)
Settings: single i.v. dose 120 nmol/kg, 6 hours
Experimental: The two fusion proteins include one and the same GLP-1 receptor agonist compound but differ in the Fab part. […] The study is an acute study in mice.
The mice were anesthetised with isoflurane 6 hours (“6H”) following administration of compound and euthanised by transcardiac perfusion with 10 ml heparinised (10 U/ml) saline followed by 10 ml 10% neutral buffered formalin (NBF). Brains were removed and immersed into 10% NBF and stored at 4° C. O/N until further processed.
The brains were dehydrated and saturated in dibenzyl ether (DBE) to minimise scattering of light during scanning by removal of water, and by matching of the refractive index. Brain tissue was dehydrated at room temperature in graded tetrahydrofuran (THF) diluted in demineralised H2O (w/v) 50/80/96/99%/2×100% 6-12 hours for each step. The brains were then cleared at room temperature in 3×DBE for 6-12 hours each step.
Brain samples were scanned using an UltraMicroscope II LSFM system (Lavision Biotec, Bielefeld, Germany) in 10.32 μm isotropic resolution. Data acquisition was performed using a 620/60 nm excitation filter and 680/30 nm emission filter for imaging autofluorescence, and a 710/75 nm excitation filter and 780/40 nm emission filter for imaging specific signals.
Images are single plane images of a z plane (2D). Spectral unmixing was performed to minimise the contribution of tissue auto-fluorescence in the images of the specific signals presented. The unmixing was carried out in Imaris (Release 7.6.5, Zurich, Switzerland) on imported tiff-files. The estimated auto-fluorescence contribution in the specific channel was calculated and removed based on ratios of voxel intensities between selected voxels in the unspecific recording and the corresponding voxels in the specific channel. A ratio was computed for 40 sets of voxels selected based on the histogram of the unspecific recording. The unmixing algorithm was written in Matlab (Release 2012b, Math Works, Natick, Massachusetts, United States) and applied as a XT-plugin in Imaris.
Images were registered to a common reference atlas space for visualisation and quantification using the Elastix software library version 4 (Klein, Stefan, et al. “Elastix: a toolbox for intensity-based medical image registration.” IEEE transactions on medical imaging 29.1 (2010): 196-205). A source image IS(x) was registered to the target atlas image IT(x) by finding a coordinate transformation T(x) that made IS(T(x)) spatially aligned with IT(x). […] Quantification was performed by summation of the unmixed intensity value of all voxels within the individual brain regions, indicating the total fluorescence signal from the compounds in these regions. […] The total signal thus indicates the total fluorescence signal from the compounds in these regions. […]

[1] = active vs inactive TfR compound

B1: Example 8: VivoTag750 fluorescence labelled GLP-1 anti TfR-Fab fusion protein of Example 6 (conjugate)
chain: HGEGTFTSDVSSYLEEQAAREFIAWLVKGRPGGGSGGGSGGGSGGGSDIQMTQSPASLSASLEEIVTITCQASQDIGNWLAWYQQKPGKSPQLLIYGATSLADGVPSRFSGSRSGTQFSLKISRVQVEDIGIYYCLQAYNTPWTFGGGTKLELKRADAAPTVSIFPPSSEQLTSGGASVVCFLNNFYPKDINVKWKIDGSERQNGVLNSWTDQDSKDSTYSMSSTLTLTKDEYERHNSYTCEATHKTSTSPIVKSFNRNECEVQLVESGGGLVQPGNSLTLSCVASGFTFSNYGMHWIRQAPKKGLEWIAMIYYDSSKMNYADTVKGRFTISRDNSKNTLYLEMNSLRSEDTAMYYCAVPTSHYVVDVWGQGVSVTVSSAKTTPPSVYPLAPGSAAQTNSMVTLGCLVKGYFPEPVTVTWNSGSLSSGVHTFPAVLQSDLYTLSSSVTVPSSTWPSETVTCNVAHPASSTKVDKKIVPRDCGHHHHHHHHHH
modifications: VivoTag750 fluorescent label; GLP-1 anti TfR-fab fusion protein; DISULFID (70)..(135); DISULFID (181)..(241); DISULFID (261)..(481); DISULFID (283)..(357); DISULFID (407)..(461)
total fluorescence signal in brain regions that do not express the GLP-1R (FIG. 16D) [1]: slightly higher | total fluorescence signal in circumventricular organs expressing the GLP-1R but devoid of a BBB (FIG. 16B) [1]: slightly higher | total fluorescence signal in brain regions expressing the GLP-1R (FIG. 16A) (compared to GLP-1-Inactive TfR): higher | total fluorescence signal in brain structures expressing the GLP-1R which are protected by the BBB (FIG. 16C) (compared to GLP-1-Inactive TfR): highly increased
